In publication PMC5413573:

Molecular target: RseP of E. faecalis LMG3358 (membrane-bound Zn-dependent site-2 protease) (E. faecalis) (UniProt Q9RPP2)
Chain of UniProt Q9RPP2 (Q9RPP2 whole entry): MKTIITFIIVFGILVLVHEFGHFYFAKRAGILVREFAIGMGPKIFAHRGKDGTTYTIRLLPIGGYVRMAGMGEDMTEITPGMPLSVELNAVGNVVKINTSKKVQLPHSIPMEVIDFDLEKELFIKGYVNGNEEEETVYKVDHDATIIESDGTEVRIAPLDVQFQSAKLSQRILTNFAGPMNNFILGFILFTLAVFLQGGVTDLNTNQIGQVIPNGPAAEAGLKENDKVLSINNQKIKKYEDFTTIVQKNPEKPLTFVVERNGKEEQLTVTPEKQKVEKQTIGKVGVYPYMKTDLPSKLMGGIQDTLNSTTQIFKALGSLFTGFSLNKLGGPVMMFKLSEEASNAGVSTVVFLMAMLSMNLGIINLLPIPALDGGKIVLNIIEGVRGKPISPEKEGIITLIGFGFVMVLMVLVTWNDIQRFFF

Substance	MIC (nM) of the bacteriocin against S. pneumoniae ds220 induced to express E. faecalis rseP (microtiter plate growth inhibition; non-induced cells and cells without rseP >4500 nM) [nM]	MIC (nM) of the bacteriocin against S. pneumoniae ds220 induced to express E. faecalis rseP (microtiter plate growth inhibition; non-induced cells and cells without rseP >5500 nM) [nM]
Enterocin EJ97 (peptide)	18	–
Enterocin K1 (peptide)	–	700
